In doi:10.64898/2025.12.02.691841:

Biological target: His5-MttP (MM_1691), DME family transporter of Methanosarcina mazei (Methanosarcina mazei)
Experiment: SEC

Substance	stoichiometry N
MttQ (MM_1692), small protein of Methanosarcina mazei (natural protein)	1
MttS (sORF05), small protein of Methanosarcina mazei (natural protein)	1
